From US20240101668A1 (WUGEN, published 2024)

Legend:
[1] = target: T1, huCD33-G69-Fc recombinant protein (human, UniProt P20138 18-259); assay: BLI;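 note: scFvs from periplasmic extracts captured on biosensors via anti-V5 antibody, exposed to recombinant huCD33 variants for 2 min, 5 min dissociation, scored as binding, no binding or ambiguous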
T1 construct: extracellular domain; also called CD33 R69G
Description: (§1) Discovered scFvs were analyzed for binding to huCD33-R69-His or huCD33-G69-Fc recombinant proteins (for anti-CD33 scFvs; for CLL-1 scFvs, huCLL1-K244-Avi-Tev-His or huCLL1-Q244-Avi-Tev-His were used; for FLT3, huFLT3-T227-His or huFLT3-M227-Fc were used) using BLI on a ForteBio Octet HTX instrument. Streptavidin-coated biosensors were loaded with biotinylated anti-V5 tag monoclonal antibody for 5 min and were then quenched and blocked with 20 μM amine-PEG2-Biotin for 5 min. scFvs were captured on biosensors from scFv clone periplasmic extracts. huCD33 (or huCLL-1, or huFLT3) proteins were then associated with the captured scFvs for 2 minutes, followed by dissociation with buffer (1×HBST [10 mM HEPES pH 7.4, 150 mM NaCl, 0.05% Tween-20], 1 g/L BSA) for 5 minutes. […] Data was fitted with 1:1 Langmuir equation and off-rate values were reported.

[2] = target: T2, huCD33-R69 stably expressed on Jurkat cells (human, UniProt P20138 18-364); assay: FACS on cells;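 note: fixed Jurkat cells bearing either CD33 variant, barcoded by dye, exposed to myc-tagged scFv periplasmic extracts, detected with anti-myc PE antibody and read by flow cytometry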
T2 construct: whole, on cells; >200,000 receptors per cell; also called CD33 WT; CD33^ARG69

[3] = target: T3, huCD33-G69 stably expressed on Jurkat cells (human, UniProt P20138 18-364); assay: FACS on cells;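 note: fixed Jurkat cells bearing either CD33 variant, barcoded by dye, exposed to myc-tagged scFv periplasmic extracts, detected with anti-myc PE antibody and read by flow cytometry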
T3 construct: whole, on cells; >200,000 receptors per cell; also called CD33 Mutant; CD33 R69G

[4] = target: T4, huFLT3-T227 stably expressed on Ramos cells (human, UniProt P36888 27-993); assay: FACS on cells
T4 construct: whole, on cells; also called FLT3 WT

[5] = target: T5, huFLT3-M227 stably expressed on Ramos cells (human, UniProt P36888 27-993); assay: FACS on cells
T5 construct: whole, on cells; also called FLT3 Mutant

[6] = target: T6, huFLT3-T227-His (human, UniProt P36888 27-543); assay: BLI
T6 construct: extracellular domain; also called FLT3 WT
Description: as §1

[7] = target: T7, huFLT3-M227-Fc (human, UniProt P36888 27-543); assay: BLI
T7 construct: extracellular domain; also called FLT3 Mutant
Description: as §1

T2 sequence (P20138 18-364): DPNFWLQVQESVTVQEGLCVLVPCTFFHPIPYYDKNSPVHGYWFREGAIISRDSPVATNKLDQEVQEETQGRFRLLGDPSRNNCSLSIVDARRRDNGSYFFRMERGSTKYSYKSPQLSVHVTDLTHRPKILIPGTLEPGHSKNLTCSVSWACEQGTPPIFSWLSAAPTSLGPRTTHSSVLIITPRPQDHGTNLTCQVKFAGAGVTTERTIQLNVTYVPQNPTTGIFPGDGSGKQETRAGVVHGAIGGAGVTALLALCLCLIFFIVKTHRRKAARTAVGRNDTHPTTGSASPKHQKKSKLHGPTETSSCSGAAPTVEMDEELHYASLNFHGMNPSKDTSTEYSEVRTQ
T1 sequence (P20138 18-259 R69G): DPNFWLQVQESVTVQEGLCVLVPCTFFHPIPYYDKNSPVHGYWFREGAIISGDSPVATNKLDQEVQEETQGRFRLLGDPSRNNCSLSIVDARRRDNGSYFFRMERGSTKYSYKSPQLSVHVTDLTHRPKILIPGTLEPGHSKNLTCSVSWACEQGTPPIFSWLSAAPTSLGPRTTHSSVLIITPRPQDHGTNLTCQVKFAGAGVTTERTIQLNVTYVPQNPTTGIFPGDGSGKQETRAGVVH
T3 sequence (P20138 18-364 R69G): as the sequence (P20138 18-364) above, with R52G counted along it

Binder	binding result [1]	geometric mean MFI fold change over Jurkat parental [2] [fold]	geometric mean MFI fold change over Jurkat parental [3] [fold]	FACS geometric mean fold change over Jurkat parental [4] [fold]	FACS geometric mean fold change over Jurkat parental [5] [fold]	binding result [6]	binding result [7]
Polypeptide No. 12 (scFv, V domains shown, scFv) VH: EVQLLESGGGLVQPGGSLRLSCAASGFTFSSHWMSWVRQAPGKGLEWVSAISGSGGSTYYADSVKGRFTISRDNSKNTLYLQMNSLRAEDTAVYYCARDDNSGSQADWGQGTLVTVSS VL: DIQMTQSPSSLSASVGDRVTITCQASQDIDNYLNWYQQKPGKAPKLLIYDASNLETGVPSRFSGSGSGTDFTLTISSLQPEDFATYYCQQSYSTPLTFGGGTKLEIKR	no binding	2 to 10	< 2	–	–	–	–
Polypeptide No. 13 (scFv, V domains shown, scFv) VH: QVQLVQSGAEVKKPGASVKVSCKASGYSFTGYYMHWVRQAPGQGLEWMGWINPNSGGTYFAQNFQGRVTMTRDTSTSTVYMELSSLRSEDTAVYYCVKDRGDRVVTSYLDYWGQGTLVTVSS VL: DIQMTQSPSSLSASVGDRVTITCRASQGIRNWLAWYQQKPGKAPKLLIYAASSLQSGVPSRFSGSGSGTDFTLTISSLQPEDFATYYCQQSYRTPYTFGQGTKLEIKR	no binding	10 to 30	< 2	–	–	–	–
Polypeptide No. 14 (scFv, V domains shown, scFv) VH: QVQLVQSGAEVKKPGASVKVSCKASGYTFTGYYMHWVRQAPGQGLEWMGIINPSGGSTSYAQKFQGRVTMTRDTSTSTVYMELSSLRSEDTAVYYCARAAPYYYDSSGYYSGGYYFDYWGQGTLVTVSS VL: not shown	no binding	> 30	< 2	–	–	–	–
Polypeptide No. 15 (scFv, V domains shown, scFv) VH: EVQLLESGGGLVQPGGSLRLSCAASGFTFSIYEIHWVRQAPGKGLEWVSAISGSGGSTYYADSVKGRFTISRDNSKNTLYLQMNSLRAEDTAVYYCARSYCGGDCWDYYYYYGMDVWGQGTTVTVSS VL: not shown	no binding	2 to 10	< 2	–	–	–	–
Polypeptide No. 16 (scFv, V domains shown, scFv) VH: EVQLVESGGGLVKPGGSLRLSCAASGFTFSDNSMNWVRQAPGKGLEWVSYISSSGSTIYYADSVKGRFTISRDDSKNTLYLQMNSLKTEDTAVYYCARGRASSWPNWFDPWGQGTLVTVSS VL: DIVMTQSPLSLPVTPGEPASISCRSSQSLLHSNGYNYLDWYLQKPGQSPQLLIYSASNLQSGVPDRFSGSGSGTDFTLKISRVEAEDVGVYYCMQALQTPPTFGQGTKLEIKR	no binding	2 to 10	< 2	–	–	–	–
Polypeptide No. 17 (scFv, V domains shown, scFv) VH: not shown VL: DIQMTQSPSSLSASVGDRVTITCRASQGISNNLNWYQQKPGKAPKLLIYESSTLETGVPSRFSGSGSGTDFTLTISSLQPEDFATYYCQQSYSAPLTFGGGTKVEIKR	no binding	2 to 10	< 2	–	–	–	–
Polypeptide No. 18 (scFv, V domains shown, scFv) VH: QVQLVQSGAEVKKPGASVKVSCKASGYTFTDHYMHWVRQAPGQGLEWMGWINPNSGGTNYAQKFQGRVTMTRDTSTSTVYMELSSLRSEDTAVYYCAKDKFGDEGSGWYGDFQHWGQGTLVTVSS VL: not shown	no binding	2 to 10	< 2	–	–	–	–
Polypeptide No. 19 (scFv, V domains shown, scFv) VH: EVQLLESGGGLVQPGGSLRLSCAASGFTFSSYWMHWVRQAPGKGLEWVSGFSGSARTYYADSVKGRFTISRDNSKNTLYLQMNSLRAEDTAVYYCAREWSGFDYWGQGTLVTVSS VL: DIQMTQSPSSLSASVGDRVTITCRASQNIGPWLAWYQQKPGKAPKLLIYDAKDLHPGVPSRFSGSGSGTDFTLTISSLQPEDFATYYCQQANTFPMTFGQGTRLEIKR	no binding	> 30	< 2	–	–	–	–
Polypeptide No. 21 (scFv, V domains shown, scFv) VH: not shown VL: DIQMTQSPSSLSASVGDRVTITCQASQDISNNLNWYQQKPGKAPKLLIYAASGLQSGVPSRFSGSGSGTDFTLTISSLQPEDFATYYCQQANSFPLTFGGGTKVEIKR	no binding	2 to 10	< 2	–	–	–	–
Polypeptide No. 22 (scFv, V domains shown, scFv) VH: QVQLVQSGAEVKKPGASVKVSCKASGYTFTDYYIHWVRQAPGQGLEWMGWINPNSGGTNYAQEFQGRVTMTRDTSTSTVYMELSSLRSEDTAVYYCARDHRIAVAGSYFDYWGQGTLVTVSS VL: DIQMTQSPSSLSASVGDRVTITCRASRSIRTWLAWYQQKPGKAPKLLIYAASSLQTGVPSRFSGSGSGTDFTLTISSLQPEDFATYYCQQSYSTPYTFGQGTKLEIKR	no binding	2 to 10	< 2	–	–	–	–
Polypeptide No. 23 (scFv, V domains shown, scFv) VH: QVQLVQSGAEVKKPGASVKVSCKASGYPFTAHYIHWVRQAPGQGLEWMGWINPNSGGTNYAQKFQGRVTMTRDTSTSTVYMELSSLRSEDTAVYYCARDVEMATIGAYWYFDLWGRGTLVTVSS VL: DIQMTQSPSSLSASVGDRVTITCRASQGINNWLAWYQQKPGKAPKLLIYDASNLETGVPSRFSGSGSGTDFTLTISSLQPEDFATYYCQQANSFPPTFGQGTKLEIKR	no binding	2 to 10	< 2	–	–	–	–
Polypeptide No. 25 (scFv, V domains shown, scFv) VH: QVQLVQSGAEVKKPGASVKVSCKASGYTFTGYYMHWVRQAPGQGLEWMGRINPNGGSTTYAQKFQGRVTMTRDTSTSTVYMELSSLRSEDTAVYYCARDDFYYYYLDFWGKGTTVTVSS VL: DIQMTQSPSSLSASVGDRVTITCRASQSINDWLAWYQQKPGKAPKLLIYAASNLQSGVPSRFSGSGSGTDFTLTISSLQPEDFATYYCQQGYSTPPTFGQGTKVEIKR	no binding	> 30	< 2	–	–	–	–
Polypeptide No. 202 (scFv, V domains shown, scFv) VH: QVQLVQSGAEVKKPGASVKVSCKASGYTFTNYYMHWVRQAPGQGLEWMGVINPSGGSTNYAQKFQGRVTMTRDTSTSTVYMELSSLRSEDTAVYYCARAGVGAFHIWGQGTMVTVSS VL: DIQMTQSPSSLSASVGDRVTITCRASQSIRSWLAWYQQKPGKAPKLLIYDASNLETGVPSRFSGSGSGTDFTLTISSLQPEDFATYYCQQIYSLPRTFGQGTKVEIKR	–	–	–	< 2	2 to 10	no binding	–
Polypeptide No. 209 (scFv, V domains shown, scFv) VH: EVQLLESGGGLVQPGGSLRLSCAASGFAFSSYVLHWVRQAPGKGLEWVAGIWVDGHNKDYADSVKGRFTISRDNSKNTLYLQMNSLRAEDTAVYYCAREFGAAGSFQHWGQGTLVTVSS VL: DIQMTQSPSSLSASVGDRVTITCRASQSISTWLAWYQQKPGKAPKLLIYDASKLETGVPSRFSGSGSGTDFTLTISSLQPEDFATYYCQQSYTTPYTFGQGTKVEIKR	–	–	–	–	–	binds	binds
Polypeptide No. 216 (scFv, V domains shown, scFv) VH: QVQLVQSGAEVKKPGSSVKVSCKASGNTFTMYYMHWVRQAPGQGLEWVGAIIPISGTVIYARKFQGRVTITADESTSTAYMELSSLRSEDTAVYYCARLSGGRMYDAFDIWGQGTTVTVSS VL: not shown	–	–	–	–	–	binds	binds
Polypeptide No. 217 (scFv, V domains shown, scFv) VH: QVQLVQSGAEVKKPGSSVKVSCKASGYTFTTFYLHWVRQAPGQGLEWIGGIIPMSGTANYAQKFQGRVTITADESTSTAYMELSSLRSEDTAVYYCASGGENGMDVWGQGTTVTVSS VL: not shown	–	–	–	–	–	binds	binds
Polypeptide No. 221 (scFv, V domains shown, scFv) VH: QVQLVQSGAEVKKPGASVKVSCKASGYTFTDNYMHWVRQAPGQGLEWMGWMTPDSNNTGFAQNFQGRVTMTRDTSTSTVYMELSSLRSEDTAVYYCALGDGPFGMDVWGQGTTVTVSS VL: DIVMTQSPLSLPVTPGEPASISCRSSQSLLHSNGYNYLDWYLQKPGQSPQLLIYGASYLQSGVPDRFSGSGSGTDFTLKISRVEAEDVGVYYCMQALQGPITFGQGTKVEIKR	–	–	–	< 2	2 to 10	no binding	–
Polypeptide No. 1 (scFv, V domains shown, scFv) VH: QVQLVQSGAEVKKPGASVKVSCKASGYSFTGYYIHWVRQAPGQGLEWMGWINPNSGGTNYAQKFQGRVTMTRDTSTSTVYMELSSLRSEDTAVYYCARDQWDGYNSGYFDYWGQGTLVTVSS VL: DIQMTQSPSSLSASVGDRVTITCRASQTINDWLAWYQQKPGKAPKLLIYSASTLHSGVPSRFSGSGSGTDFTLTISSLQPEDFATYYCQQAYSTPWTFGQGTKVEIKR	no binding	> 30	< 2	–	–	–	–
Polypeptide No. 203 (scFv, V domains shown, scFv) VH: QVQLVQSGAEVKKPGSSVKVSCKASGYTLTELSMHWVRQAPGQGLEWMGRIIPISGTANYAQKFQGRVTITADESTSTAYMELSSLRSEDTAVYYCARAARYCSSTSCYWRDGMDVWGQGTTVTVSS VL: not shown	–	–	–	< 2	–	no binding	–
